# Assay results as given in publication PMC4816394.
# Key:
# [1] = biological target: human triosephosphate isomerase K13M, catalytically inactive (hTPI^Δcat) (human); assay: crystal structure; sitting drops, 28-34% PEG2000 MME, 50 mM KBr; space group P212121, a dimer in the asymmetric unit; 1.7 Å
# [2] = biological target: human triosephosphate isomerase M82T (hTPI^M82T) (human); assay: SEC; purified TPI diluted to 15 uM in mobile phase, 100 ul injected, elution monitored at 280 nm; peak areas integrated for the relative monomer and dimer populations; dimer to monomers
stoichiometry N [1],percent dimer (dimer:monomer ratio of peak areas) [2] [%],Substance
2,,"human triosephosphate isomerase K13M, catalytically inactive (hTPI^Δcat) (enzyme)"
,5,human triosephosphate isomerase M82T (hTPI^M82T) (enzyme)
